Experimental data: patent publication US20160228502A1 (UNIVERSITY OF MARYLAND BALTIMORE, published 2016)
Where no end group is shown, it is not given here.

B1: sarco(endo)plasmic reticulum Ca^2+-ATPase 1 (SERCA1) (enzyme)
chain: MEAAHSKSTEECLAYFGVSETTGLTPDQVKRHLEKYGHNELPAEEGKSLWELVIEQFEDLLVRILLLAACISFVLAWFEEGEETITAFVEPFVILLILIANAIVGVWQERNAENAIEALKEYEPEMGKVYRADRKSVQRIKARDIVPGDIVEVAVGDKVPADIRILSIKSTTLRVDQSILTGESVSVIKHTEPVPDPRAVNQDKKNMLFSGTNIAAGKALGIVATTGVSTEIGKIRDQMAATEQDKTPLQQKLDEFGEQLSKVISLICVAVWLINIGHFNDPVHGGSWIRGAIYYFKIAVALAVAAIPEGLPAVITTCLALGTRRMAKKNAIVRSLPSVETLGCTSVICSDKTGTLTTNQMSVCKMFIIDKVDGDFCSLNEFSITGSTYAPEGEVLKNDKPIRSGQFDGLVELATICALCNDSSLDFNETKGVYEKVGEATETALTTLVEKMNVFNTEVRNLSKVERANACNSVIRQLMKKEFTLEFSRDRKSMSVYCSPAKSSRAAVGNKMFVKGAPEGVIDRCNYVRVGTTRVPMTGPVKEKILSVIKEWGTGRDTLRCLALATRDTPPKREEMVLDDSSRFMEYETDLTFVGVVGMLDPPRKEVMGSIQLCRDAGIRVIMITGDNKGTAIAICRRIGIFGENEEVADRAYTGREFDDLPLAEQREACRRACCFARVEPSHKSKIVEYLQSYDEITAMTGDGVNDAPALKKAEIGIAMGSGTAVAKTASEMVLADDNFSTIVAAVEEGRAIYNNMKQFIRYLISSNVGEVVCIFLTAALGLPEALIPVQLLWVNLVTDGLPATALGFNPPDLDIMDRPPRSPKEPLISGWLFFRYMAIGGYVGAATVGAAAWWFMYAEDGPGVTYHQLTHFMQCTEDHPHFEGLDCEIFEAPEPMTMALSVLVTIEMCNALNSLSENQSLMRMPPWVNIWLLGSICLSMSLHFLILYVDPLPMIFKLKALDLTQWLMVLKISLPVIGLDEILKFIARNYLEDPEDERRK
notes: One entry covers native rabbit SERCA1 (SR vesicles) and untagged recombinant rabbit SERCA1 (COS7/HEK293 extracts and microsomes); The assay field of each row says which source was used; also called SERCA1-pcDNA3.1
B2: junctophilin-1 (JPH1), native, rabbit skeletal muscle SR vesicles (other, UniProt Q9GKY8 1-662, looked up)
chain: MTGGRFDFDDGGTYCGGWEEGKAHGHGICTGPKGQGEYSGSWSHGFEVVGGYTWPSGNTYQGYWAQGKRHGLGVETKGKWMYRGEWSHGFKGRYGVRQSLCTPARYEGTWSNGLQDGYGVETYGDGGTYQGQWAGGMRHGYGVRQSVPYGMATVIRSPLRTSLASLRSEQSNGSVLHDAAAAADTPTGTRGGFVLNFHADAELAGKKKGGLFRRGSLLGSMKLRKSESKSSISSKRSSVRSDAAMSRISSSDANSTISFGDVDCDFCPVEDHVDATTTETYMGEWKNDKRNGFGISERSNGMKYEGEWANNKRHGYGCTVFPDGSKEEGKYKNNILVRGIRKQLIPIRNTKTREKVDRAIEGAQRAAAMARTKVEIANSRTAHARAKADAADQAALAARQECDIARAVARELSPDFYQPGPDYIKQRLQEGVDAKENPEEKVPAKPPTPKESPHFYRKGTTPPGSPEASPKYSRSPQPSPPKPAKKQNPSSGARLNQDKRGVAEEQVTAIVNKPLTSKAPTKEVGAAVSQSKYSGRHHVPNPSNGELHSQYHGYYVKLHAPQHPPVDAEDDDRSSPSSSALVHKPSPNKWSPPKSVTKPVAKESKAEPKAKKSELAIPKNPASNDSCPSMEREANSGPNSVMIVLVMLLNIGLAILFVHFLT

Key:
[1] = biological target: Maltose Binding Protein (MBP) alone (UniProt P0AEX9 27-392 = MBP); assay: blot overlay on rabbit SR vesicle proteins
Experimental: A FLAG empty vector was used as controls. […] 7B. Amylose resin bound to bacterially expressed sAnk1₂₉₋₁₅₅-MBP fusion protein was incubated with COS7 extracts transfected to express SERCA1. MBP protein alone was used as a control. […] Ponceau staining was used as a loading control (top panel). 7C. SR vesicle preparations were used for blot overlay assays. Blots were first overlaid with sAnk1₂₉₋₁₅₅-MBP or MBP protein alone, followed by incubation with antibodies to MBP. […] Ponceau staining was used as a loading control (right panel).
The blot overlay assay was performed as described (50, 69) with minor modifications. […] The generation and purification of these fusion proteins were as described (51). A separate section of the membrane was reserved to identify SERCA1. Blots were washed extensively with overlay buffer and once with TBS, pH 7.4, plus 0.5% Tween-20 (TBST). The blots were blocked in TBST+4% non-fat dry milk for 4 h at 25° C. and probed with antibodies to MBP (overlay portion) and SERCA1 (non-overlay portion). Immunoblots were completed as described above.

[2] = biological target: B1; assay: coIP with antibodies to JPH1 from rabbit SR vesicles
Experimental: CoIP experiments were performed as described in (60), with preparations of SR vesicles isolated by the method of Eletr and Inesi (61, 62) from rabbit skeletal muscle from the back and hind limb (Pel-Freez, Rogers, Ark.), or from crude membrane extracts of COS7 cells prepared as described (59, 63). For the latter, COS7 cells were harvested in PBS at 48 h following transfection, collected by centrifugation, frozen in liquid N₂ and stored at −80° C. until needed. Briefly, pellets were homogenized with 30 strokes of a glass Dounce homogenizer in resuspension buffer (0.25 M sucrose, 10 mM Tris-HCl, pH 7.5, 20 mM CaCl₂, 3 mM 2-mercaptoethanol, 150 mM KCl), and solubilized with an equal volume of lysis buffer (40 mM HEPES-NaOH, pH 7.5, 300 mM NaCl, 2 mM EDTA, 1% Tween 20). SR vesicles were prepared for coIP by the same methods for resuspension and solubilization. The muscle and cell extracts were pre-cleared with 50 μL uncoated Dynabeads. The pre-cleared extracts were mixed with antibody-coated Dynabeads (5 ug antibody/50 uL beads) and incubated at 4° C. for 4 h. […] Proteins in the samples were separated by SDS-PAGE and analyzed via immunoblot as described (64).
The interaction between SERCA1 and sAnk1 was first analyzed by co-immunoprecipitation (coIP), performed with SR vesicles prepared from rabbit skeletal muscle (see Methods). […]

[3] = biological target: B1; assay: cell-based or functional assay

Binder: B1
- binding result [1]: no binding (tested: 3 µg/mL)

Binder: B2
- binding result [2]: no binding

Binder: {FLAG tag}-MERSTRELCLNFTVVLITVILIWLLVRSYQY (other, rabbit, UniProt P42532 1-31, looked up, not shown: small tags and cut ends, not fully specified) [N-terminal FLAG-tagged sarcolipin (NF-SLN)]
- ΔKCa2+ relative to SERCA1 Alone [3]: -0.37 pCa^2+ units
